Where a chain is given by its changes, count along the chain named. Names and notes keep the numbering of the source.
Legend:
[1] = target: T1, truncated hTfR1 of SEQ ID NO:122 (human, UniProt P02786 122-760); assay: SPR, FLAG-captured TfR1, bispecific injected, 1:1 fit
T1 construct: also called human TfR1; Human TfR1
Protocol: (§1) Binding of the purified bispecific binding molecules produced in Example 47 to human and cynomolgus TfR1 was evaluated using SPR on a Biacore 8K instrument (Cytiva). […] The interaction was measured using the single cycle kinetics method with a contact time of 120 s at a flow rate of 30 μl/min followed by a dissociation time of 600 s. Regeneration of the surface between cycles was done by injecting 10 mM glycine-HCl, pH 1.7. The binding data was fitted to a 1:1 interaction model. The tested molecules were diluted in HBS-EP+ (Cytiva, #BR100669). Experiments were performed at 25° C.

[2] = target: T2, truncated cTfR1 of SEQ ID NO:123 (cynomolgus monkey, UniProt Q5RDH6 122-760 (Pongo abelii entry)); assay: as above
T2 construct: also called cynomolgus TfR1
T2 chain: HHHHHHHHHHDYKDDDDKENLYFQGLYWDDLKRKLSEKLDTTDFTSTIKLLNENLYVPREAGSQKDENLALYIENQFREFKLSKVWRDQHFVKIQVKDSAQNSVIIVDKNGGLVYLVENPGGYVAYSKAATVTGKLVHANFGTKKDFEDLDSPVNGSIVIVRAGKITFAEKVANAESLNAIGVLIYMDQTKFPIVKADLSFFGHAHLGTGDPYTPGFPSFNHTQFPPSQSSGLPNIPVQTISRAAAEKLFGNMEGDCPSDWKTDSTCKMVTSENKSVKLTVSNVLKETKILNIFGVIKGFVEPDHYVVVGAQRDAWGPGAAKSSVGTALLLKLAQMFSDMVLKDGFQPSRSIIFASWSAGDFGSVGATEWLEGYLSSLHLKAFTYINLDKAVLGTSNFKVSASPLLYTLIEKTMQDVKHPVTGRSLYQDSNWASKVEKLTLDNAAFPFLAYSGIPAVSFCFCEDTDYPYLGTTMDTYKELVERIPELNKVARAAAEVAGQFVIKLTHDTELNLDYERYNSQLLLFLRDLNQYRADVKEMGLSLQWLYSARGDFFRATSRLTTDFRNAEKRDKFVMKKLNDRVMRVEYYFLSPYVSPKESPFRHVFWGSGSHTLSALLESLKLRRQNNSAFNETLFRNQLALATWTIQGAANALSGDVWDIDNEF
Protocol: as §1

AβpE3-40 monomer = target: T3, AβpE3-40 monomer (UniProt P05067 674-711, pyroglutamate at position 3 (N-terminal residue)); assay: SPR, antibody immobilised, monomer injected, 1:1 fit
T3 construct: range 3-40 (Aβ numbering); Synthetic peptide (Bachem/Anaspec), verified monomeric by SEC; also called monomeric AβpE3-40

[3] = target: T4, ectodomain of human TfR1 (His10-hTfR1; SEQ ID NO:110) (human, UniProt P02786 89-760); assay: BLI: His-tagged Fab loaded from cell supernatant on anti-Fab sensors, hTfR1 ectodomain at 3.75 µg/ml in solution, 300 s association, 300 s dissociation
T4 construct: also called ectodomain of hTfR1
Source text: The generated alanine variants were expressed as single mutant, His-tagged Fabs by transient transfection of Chinese hamster ovary cells (ExpiCHO; Thermo Fisher Scientific) according to the manufacturer's instructions. Clarified media, into which the Fabs had been secreted, was used to assess binding to hTfR1 by BLI (Octet RED384, ForteBio). The expressed Fabs were loaded from the cell supernatants onto anti-Fab biosensors during 240 s. Thereafter, association of ectodomain of hTfR1 (SEQ ID NO:110), diluted to 3.75 μg/ml in 1× Kinetics buffer (ForteBio), to the loaded sensors was measured for 300 s, followed by dissociation for 300 s.

[4] = target: T1, truncated hTfR1 of SEQ ID NO:122; assay: SPR, TfR1 amine-coupled, Fab injected, 1:1 fit
Protocol: (§2) Binding of the purified Fabs to human and cynomolgus TfR1 was evaluated using either SPR (FIG. 44) or indirect ELISA (FIG. 45). For SPR, a Biacore 8K instrument (Cytiva) was used. […] The Fabs were injected over the chip using a 2-fold dilution series in four steps starting at 100 nM. The interaction was measured using the single cycle kinetics method with a contact time of 120 s at a flow rate of 30 μl/min followed by a dissociation time of 1000 s. Regeneration of the surface between cycles was done by injecting 3M MgCl₂. The binding data was fitted to a 1:1 interaction model. The Fabs were diluted in HBS-EP+ (Cytiva, #BR100669). Experiments were performed at 25° C.

[5] = target: T2, truncated cTfR1 of SEQ ID NO:123; assay: SPR, TfR1 amine-coupled, Fab injected, 1:1 fit
Protocol: as §2

[6] = target: T4, ectodomain of human TfR1 (His10-hTfR1; …); assay: indirect ELISA: plate coated with 1 µg/ml hTfR1 ectodomain, Fab in 1:3 serial dilution, anti-human IgG F(ab')2-HRP
Protocol: For the indirect ELISA, half area 96-well plates (Corning, #3690) were coated with 1 μg/ml recombinant ectodomain of hTfR1 (SEQ ID NO:110) in PBS overnight at 4° C. The coated plates were blocked using Pierce protein-free blocking solution (Thermo Fisher Scientific, #37572) for 1 h at room temperature with shaking and washed four times in PBS containing 0.1% TWEEN-20. Serial dilutions (1:3) of various expressed constructs in incubation buffer (1% BSA, 0.1% TWEEN-20 in PBS) were incubated for 1 h at room temperature. […] Following four wash steps, K-Blue® Aqueous TMB substrate (Neogen, #331177) was added to the wells for 15 min at room temperature before the reaction was stopped with 1:1 dilution of 0.5 M H₂SO₄. The optical density at 450 nm was recorded (Spark, Tecan) and background signal was subtracted before analysis.

T3 sequence (P05067 674-711): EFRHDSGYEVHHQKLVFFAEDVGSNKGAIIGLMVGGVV

B1: BA007 (bispecific antibody, human IgG1, kappa)
light: EIVLTQSPLSLSVTLGQSASISCRSSQSLLDSNGKTYLHWFILRPGQSPRRLIYLVSILDSGVPDRFSGSGSGTDFTLKISRVEAEDVGVYYCVQGTHFPFTFGSGTKLEIKRTVAAPSVFIFPPSDEQLKSGTASVVCLLNNFYPREAKVQWKVDNALQSGNSQESVTEQDSKDSTYSLSSTLTLSKADYEKHKVYACEVTHQGLSSPVTKSFNRGEC
heavy 1: not shown
heavy 2: EVQLVQSGAEVVKPGASVRLSCKASGYSFTGFTMNWVRQALGQGLEWMGLINPYNGVTTYNQKFKGRLTMTRDMSTRTVYMDLSSLTYEDTAVYYCTREGNWEGVYWGQGTLVTVSSASTKGPSVFPLAPSSKSTSGGTAALGCLVKDYFPEPVTVSWNSGALTSGVHTFPAVLQSSGLYSLSSVVTVPSSSLGTQTYICNVNHKPSNTKVDKKVEPKSCDKTHTCPPCPAPELLGGPSVFLFPPKPKDTLMISRTPEVTCVVVDVSHEDPEVKFNWYVDGVEVHNAKTKPREEQYNSTYRVVSVLTVLHQDWLNGKEYKCAVSNKALPAPIEKTISKAKGQPREPQVYTLPPCRDELTKNQVSLWCLVKGFYPSDIAVEWESNGQPENNYKTTPPVLDSDGSFFLYSKLTVDKSRWQQGNVFSCSVMHEALHNHYTQKSLSLSPGGGGGSGGGGSGGGGSGGGGSDIQMTQSPSSVSASVGDRVTITCKSSQSLLYSTNQKNYLAWYQQKPGKAPKLLIYWASTRESGVPSRFSGSGSGTDFTLTISSLQPEDFATYYCQQYFIYPRTFGCGTKVEIKGGGGSGGGGSGGGGSGGGGSEVQLVQSGAEVKKPGSSVKVSCKASGYIFTDYNMDWVRQAPGQCLEWIGDINPDADTTSYNEKFKGRATLTVDKSTSTAYMELSSLRSEDSAVYYCARGGYSGSSYYHPMDYWGQGTLVTVKS
- Kd [1]: 186 nM
- koff [1]: 0.004 s⁻¹
- kon [1]: 22000 M⁻¹ s⁻¹
- Kd [2]: 565 nM
- koff [2]: 0.011 s⁻¹
- kon [2]: 19000 M⁻¹ s⁻¹
- Kd (AβpE3-40 monomer): 2.1 nM
- koff (AβpE3-40 monomer): 0.00012 s⁻¹
- kon (AβpE3-40 monomer): 54000 M⁻¹ s⁻¹

B2: h26D3 variant HC1 Fab (Fab, V domains shown)
VH: EVQLVQSGAEVKKPGSSVKVSCKASGYIFTAYNMDWVRQAPGQGLEWIGDINPDYDTTSYNEKFKGRATLTVDKSTSTAYMELSSLRSEDTAVYYCARGGYSGSSYYHPMDYWGQGTLVTVSS
VL: DIQMTQSPSSVSASVGDRVTITCKSSQSLLYSTNQKNYLAWYQQKPGKAPKLLIYWASTRESGVPSRFSGSGSGTDFTLTISSLQPEDFATYYCQQYFIYPRTFGQGTKVEIK
notes: Single-mutant His-tagged Fab; also called D31A
- binding result [3]: binds

B3: h26D3 variant HC7 Fab (Fab, V domains shown)
VH: B2 VH with A31D, D56A
VL: B2 VL
notes: Single-mutant His-tagged Fab; also called D56A
- binding result [3]: binds

B4: h26D3 variant HC9 Fab (Fab, V domains shown)
VH: B2 VH with A31D, Y101A
VL: B2 VL
notes: Single-mutant His-tagged Fab; also called Y101A
- binding result [3]: binds

B5: h26D3 variant HC12 Fab (Fab, V domains shown)
VH: B2 VH with A31D, D111A
VL: B2 VL
notes: Single-mutant His-tagged Fab; also called D111A
- binding result [3]: binds

B6: h26D3 variant HC13 Fab (Fab, V domains shown)
VH: B2 VH with A31D, Y112A
VL: B2 VL
notes: Single-mutant His-tagged Fab; also called Y112A
- binding result [3]: binds

B7: h26D3 variant LC2 Fab (Fab, V domains shown)
VH: B2 VH with A31D
VL: B2 VL with Y38A
notes: Single-mutant His-tagged Fab; also called Y38A
- binding result [3]: binds

B8: h26D3 variant LC6 Fab (Fab, V domains shown)
VH: B2 VH with A31D
VL: B2 VL with Y100A
notes: Single-mutant His-tagged Fab; also called Y100A
- Kd [4]: 8.5 nM
- Kd [5]: 9.4 nM

B9: h26D3-HC3/LC1 (Fab, V domains shown)
VH: B2 VH with A31D, D35A
VL: B2 VL with Y31A
notes: His-tagged Fab; also called double alanine mutant of h26D3 (VH D35A, VL Y31A)
- binding result [6]: binds

B10: h26D3-HC3/LC5 (Fab, V domains shown)
VH: B2 VH with A31D, D35A
VL: B2 VL with Y97A
notes: His-tagged Fab; also called double alanine mutant of h26D3 (VH D35A, VL Y97A)
- binding result [6]: binds

B11: h26D3-HC6/LC1 (Fab, V domains shown)
VH: B2 VH with A31D, Y55A
VL: B2 VL with Y31A
notes: His-tagged Fab; also called double alanine mutant of h26D3 (VH Y55A, VL Y31A)
- binding result [6]: binds

B12: h26D3-HC6/LC5 (Fab, V domains shown)
VH: B2 VH with A31D, Y55A
VL: B2 VL with Y97A
notes: His-tagged Fab; also called double alanine mutant of h26D3 (VH Y55A, VL Y97A)
- binding result [6]: binds

B13: h26D3-HC8/LC1 (Fab, V domains shown)
VH: B2 VH with A31D, Y60A
VL: B2 VL with Y31A
notes: His-tagged Fab; also called double alanine mutant of h26D3 (VH Y60A, VL Y31A)
- binding result [6]: binds

B14: h26D3-HC8/LC5 (Fab, V domains shown)
VH: B2 VH with A31D, Y60A
VL: B2 VL with Y97A
notes: His-tagged Fab; also called double alanine mutant of h26D3 (VH Y60A, VL Y97A)
- binding result [6]: binds

B15: h26D3-HC10/LC1 (Fab, V domains shown)
VH: B2 VH with A31D, Y106A
VL: B2 VL with Y31A
notes: His-tagged Fab; also called double alanine mutant of h26D3 (VH Y106A, VL Y31A)
- binding result [6]: binds

B16: h26D3-HC10/LC5 (Fab, V domains shown)
VH: B2 VH with A31D, Y106A
VL: B2 VL with Y97A
notes: His-tagged Fab; also called double alanine mutant of h26D3 (VH Y106A, VL Y97A)
- binding result [6]: binds

B17: BA006 (bispecific antibody, human IgG1, kappa)
light: B1 light
heavy 1: not shown
heavy 2: B1 heavy 2 with S690T
- Kd [1]: 189 nM
- koff [1]: 0.0041 s⁻¹
- kon [1]: 22000 M⁻¹ s⁻¹
- Kd [2]: 552 nM
- koff [2]: 0.011 s⁻¹
- kon [2]: 20000 M⁻¹ s⁻¹
- Kd (AβpE3-40 monomer): 2.3 nM
- koff (AβpE3-40 monomer): 0.00012 s⁻¹
- kon (AβpE3-40 monomer): 52000 M⁻¹ s⁻¹
